Test results: PMC11366018 (Nature Communications, 2024)

Columns and labels:
SARS-CoV-2 RBD (WT) [1] = molecular target: T1, SARS-CoV-2 RBD (WT) (SARS-CoV-2 Wuhan-Hu-1 (wildtype), UniProt P0DTC2); assay: BLI; details: both partners purified
Bat CoV RaTG13 RBD [2] = molecular target: Bat CoV RaTG13 RBD (Bat coronavirus RaTG13, UniProt A0ABF7PLN6); assay: BLI; details: both partners purified
Pangolin CoV GD1 RBD = Pangolin CoV GD1 RBD (Pangolin coronavirus Guangdong, isolate …, strain); assay: BLI; details: both partners purified
Bat CoV RaTG13 RBD [3] = molecular target: Bat CoV RaTG13 RBD (Bat coronavirus RaTG13, UniProt A0ABF7PLN6, strain); assay: BLI; details: both partners purified
SARS-CoV-1 RBD = SARS-CoV-1 RBD (SARS-CoV-1, strain , UniProt P59594); assay: BLI; details: both partners purified
SARS-CoV-2 RBD (WT) [4] = molecular target: T1, SARS-CoV-2 RBD (WT); assay: BLI; details: both partners purified; remark: listed apart in the source
[5] = molecular target: T2, wildtype SARS-CoV-2 spike receptor binding domain (RBD), residues 319-541 (SARS-CoV-2, wildtype (ancestral), UniProt P0DTC2); assay: cell-based or functional assay
[6] = molecular target: T2, wildtype SARS-CoV-2 spike receptor …; assay: BLI; details: both partners purified

Binder | Kd (Pangolin CoV GD1 RBD) [nM] | koff (Pangolin CoV GD1 RBD) [s⁻¹] | kon (Pangolin CoV GD1 RBD) [M⁻¹ s⁻¹] | Kd (Bat CoV RaTG13 RBD [3]) [nM] | koff (Bat CoV RaTG13 RBD [3]) [s⁻¹] | kon (Bat CoV RaTG13 RBD [3]) [M⁻¹ s⁻¹] | Kd (SARS-CoV-2 RBD (WT) [4]) [nM] | koff (SARS-CoV-2 RBD (WT) [4]) [s⁻¹] | kon (SARS-CoV-2 RBD (WT) [4]) [M⁻¹ s⁻¹] | other results
R1-26 (antibody, V domains shown) VH: EVQLVESGGGLVQPGGSLRLSCAASGFTFSSYWMSWVRQAPGKGLEWVANIKQDGSEKYYVDSVKGRFTISRDNAKNSLYLQMNSLRAEDTAVYYCARGQLGPWVGVDYWGQGTLVTVSS VL: NFMLTQPHSVSESPGKTVTISCTGSSGSIASNYVQWYQQRPGSAPTTVIYEDNQRPSGVPDRFSGSIDSSSNSASLTISGLKTEDEADYYCQSYDSSNWVFGGGTQLTVL | – | – | – | – | – | – | – | – | – | Kd (SARS-CoV-2 RBD (WT) [1]): 3.84 nM; koff (SARS-CoV-2 RBD (WT) [1]): 0.00177 s⁻¹; kon (SARS-CoV-2 RBD (WT) [1]): 460000 M⁻¹ s⁻¹
H18 (recombinant mAb, IgG) (antibody, V domains shown) VH: QVQLQESGPGLVKPSETLSLTCTVSGGSVSSGGYFWSWIRQPPGKGLEWIGCIYYSGSTNYNPSLKSRVTISVDTSKDQFSLKLSSVTAADTAVYYCARQLWLRGRFDYWGQGTLVTVSS VL: NFMLTQPHSVSESPGKTVTISCTRSSGSIASNYVQWYQQRPGSSPTTVIYEDNQRPSGVPDRFSGSIDSSSNSASLTISGLKTEDEADYYCQSYDSSNVVFGGGTKLTVL | – | – | – | – | – | – | – | – | – | binding result (Bat CoV RaTG13 RBD [2]): binds
H18 (antibody, V domains shown, human IgG1) VH: QVQLQESGPGLVKPSETLSLTCTVSGGSVSSGGYFWSWIRQPPGKGLEWIGCIYYSGSTNYNPSLKSRVTISVDTSKDQFSLKLSSVTAADTAVYYCARQLWLRGRFDYWGQGTLVTVSS VL: NFMLTQPHSVSESPGKTVTISCTRSSGSIASNYVQWYQQRPGSSPTTVIYEDNQRPSGVPDRFSGSIDSSSNSASLTISGLKTEDEADYYCQSYDSSNVVFGGGTKLTVL | 134 | 0.00624 | 46500 | 332 | 0.00612 | 18400 | – | – | – | Kd (SARS-CoV-1 RBD): 231 nM; koff (SARS-CoV-1 RBD): 0.00283 s⁻¹; kon (SARS-CoV-1 RBD): 12300 M⁻¹ s⁻¹
H4 (antibody, V domains shown) VH: EVQLVESGGGLVQPGGSLRLSCAASGFTFSSYWMSWVRQAPGKGLEWVANIKQDGSEKYYVDSVKGRFTISRDNAKNSLYLQMNSLRAEDTAVYYCASQLWLRGAFDIWGQGTMVTVSS VL: NFMLTQPHSVSESPGKTVTISCTRSSGSIASNYVQWYQQRPGSSPTTVIYEDNQRPSGVPDRFSGSIDSSSNSASLTISGLKTEDEADYYCQSYDSSNVVFGGGTKLTVL | 355 | 0.0102 | 28800 | 503 | 0.0134 | 26700 | 29.9 | 0.0105 | 351000 | –
H16 (antibody, V domains shown, human IgG1) VH: QLQLQESGPGLVKPSETLSLTCTVSGGSISSSSYYWGWIRQPPGKGLEWIGSIYYSGSTYYNPSLKSRVTISVDTSKNQFSLKLSSVTAADTAVYYCARREWLRGPFDYWGQGTLVTVSS VL: NFMLTQPHSVSESPGKTVTISCTRSSGSIASNYVQWYQQRPGSSPTTVIYEDNQRPSGVPDRFSGSIDSSSNSASLTISGLKTEDEADYYCQSYDSSNVVFGGGTKLTVL | 737 | 0.0254 | 34400 | – | – | – | 97.9 | 0.0498 | 509000 | binding result (Bat CoV RaTG13 RBD [3]): no binding (tested: 200 nM (highest of the series))
H14 (antibody, V domains shown, human IgG1) VH: QVQLQESGPGLVKPSQTLSLTCTVSGGSISSGGYYWSWIRQHPGKGLEWIGYIYYSGSTYYNPSLKSLVTISVDTSKNQFSLKLSSVTAADTAVYYCARKGWLRGAFDIWGQGTMVTVSS VL: NFMLTQPHSVSESPGKTVTISCTRSSGSIASNYVQWYQQRPGSSPTTVIYEDNQRPSGVPDRFSGSIDSSSNSASLTISGLKTEDEADYYCQSYDSSNVVFGGGTKLTVL | 451 | 0.0205 | 45500 | 302 | 0.0151 | 49900 | 34 | 0.0182 | 536000 | –
H5 (antibody, V domains shown, human IgG1) VH: QVQLVESGGGLVKPGGSLRLSCAASGFTFSDYYMSWIRQAPGKGLEWVSYISSSGSTIYYADSVKGRFTISRDNAKNSLYLQMNSLRAEDTAVYYCARAKWLRGHFDYWGQGTLVTVSS VL: NFMLTQPHSVSESPGKTVTISCTRSSGSIASNYVQWYQQRPGSSPTTVIYEDNQRPSGVPDRFSGSIDSSSNSASLTISGLKTEDEADYYCQSYDSSNVVFGGGTKLTVL | – | – | – | – | – | – | 1500 | 0.195 | 129000 | binding result (Bat CoV RaTG13 RBD [3]): no binding (tested: 200 nM (highest of the series))
R1-26 (IgG) (antibody, V domains shown) VH: EVQLVESGGGLVQPGGSLRLSCAASGFTFSSYWMSWVRQAPGKGLEWVANIKQDGSEKYYVDSVKGRFTISRDNAKNSLYLQMNSLRAEDTAVYYCARGQLGPWVGVDYWGQGTLVTVSS VL: NFMLTQPHSVSESPGKTVTISCTGSSGSIASNYVQWYQQRPGSAPTTVIYEDNQRPSGVPDRFSGSIDSSSNSASLTISGLKTEDEADYYCQSYDSSNWVFGGGTQLTVL | – | – | – | – | – | – | – | – | – | pseudovirus neutralization IC50 (pseudovirus displaying WT SARS-CoV-2 S-protein) [5]: 2.7 nM; Kd [6]: 3.8 nM
